Assay results reported in paper PMC8855710.

How the values were obtained:
[1] = target: htt^ex1Q7 (huntingtin exon-1 polypeptide with seven glutamines); assay: NMR titration
[2] = target: PL: binary complex of monomeric htt^ex1Q7 with Fyn SH3 (not stated | Gallus gallus) (UniProt Q05876); assay: NMR titration
[3] = target: huntingtin exon 1 (httex1Q7) dimer exon 1 (Homo sapiens) (UniProt P42858); conditions: cited from earlier work

Question: Which Kd [1] does the source give for “Gallus gallus tyrosine kinase Fyn SH3 domain (wild type) (from UniProt Q05876 85-135) (domain or fragment)” here?
Answer: 210 µM

Question: Which stoichiometry N [2] does the source give for “PL: binary complex of monomeric htt^ex1Q7 with Fyn SH3 (from UniProt Q05876 85-135)” here?
Answer: 2

Question: For “huntingtin exon 1 (httex1Q7) dimer exon 1 (from UniProt P42858)”, which Kd [3] is on record?
Answer: 25 µM
